Laboratory results reported in paper doi:10.1101/2022.11.10.515925 (bioRxiv, 2022).

Molecular target: the molecule itself
Experiment: SEC-MALS

| Protein | stoichiometry N |
| --- | --- |
| KIF20A 1-665 (dimeric motor construct) (domain or fragment, mouse, UniProt P97329 1-665, looked up) MSHRILSPPAGLLSDEDVVDSPILESTAADLRSVVRKDLLSDCSVISASLEDKQALLEDTSEKVKVYLRIRPFLTSELDRQEDQGCVCIENTETLVLQAPKDSFALKSNERGVGQATHKFTFSQIFGPEVGQVAFFNLTMKEMVKDVLKGQNWLIYTYGVTNSGKTYTIQGTSKDAGILPQSLALIFNSLQGQLHPTPDLKPLLSNEVIWLDSKQIRQEEMKKLSLLIGGLQEEELSTSVKKRVHTESRIGASNSFDSGVAGLSSTSQFTSSSQLDETSQLWAQPDTVPVSVPADIRFSVWISFFEIYNELLYDLLEPPSHQHKRQTLRLCEDQNGNPYVKDLNWIHVRDVEEAWKLLKVGRKNQSFASTHMNQQSSRSHSIFSIRILHLQGEGDIVPKISELSLCDLAGSERCKHQKSGERLKEAGNINTSLHTLGRCIAALRQNQQNRSKQNLIPFRDSKLTRVFQGFFTGRGRSCMIVNVNPCASTYDETLHAAKFSALASQLVHAPPVHLGIPSLHSFIKKHSPQVGPGLEKEDKADSDLEDSPEDEADVSVYGKEELLQVVEAMKALLLKERQEKLQLEIQLREEICNEMVEQMQQREQWCSERLDNQKELMEELYEEKLKILKESLTTFYQEQIQERDEKIEELETLLQEAKQQPAAQQ | 2 |
| KIF20A 25-665 (dimeric motor construct) (domain or fragment, mouse, UniProt P97329 25-665, looked up) ESTAADLRSVVRKDLLSDCSVISASLEDKQALLEDTSEKVKVYLRIRPFLTSELDRQEDQGCVCIENTETLVLQAPKDSFALKSNERGVGQATHKFTFSQIFGPEVGQVAFFNLTMKEMVKDVLKGQNWLIYTYGVTNSGKTYTIQGTSKDAGILPQSLALIFNSLQGQLHPTPDLKPLLSNEVIWLDSKQIRQEEMKKLSLLIGGLQEEELSTSVKKRVHTESRIGASNSFDSGVAGLSSTSQFTSSSQLDETSQLWAQPDTVPVSVPADIRFSVWISFFEIYNELLYDLLEPPSHQHKRQTLRLCEDQNGNPYVKDLNWIHVRDVEEAWKLLKVGRKNQSFASTHMNQQSSRSHSIFSIRILHLQGEGDIVPKISELSLCDLAGSERCKHQKSGERLKEAGNINTSLHTLGRCIAALRQNQQNRSKQNLIPFRDSKLTRVFQGFFTGRGRSCMIVNVNPCASTYDETLHAAKFSALASQLVHAPPVHLGIPSLHSFIKKHSPQVGPGLEKEDKADSDLEDSPEDEADVSVYGKEELLQVVEAMKALLLKERQEKLQLEIQLREEICNEMVEQMQQREQWCSERLDNQKELMEELYEEKLKILKESLTTFYQEQIQERDEKIEELETLLQEAKQQPAAQQ | 2 |
| KIF20A 55-665 (dimeric motor construct) (domain or fragment, mouse, UniProt P97329 55-665, looked up) ALLEDTSEKVKVYLRIRPFLTSELDRQEDQGCVCIENTETLVLQAPKDSFALKSNERGVGQATHKFTFSQIFGPEVGQVAFFNLTMKEMVKDVLKGQNWLIYTYGVTNSGKTYTIQGTSKDAGILPQSLALIFNSLQGQLHPTPDLKPLLSNEVIWLDSKQIRQEEMKKLSLLIGGLQEEELSTSVKKRVHTESRIGASNSFDSGVAGLSSTSQFTSSSQLDETSQLWAQPDTVPVSVPADIRFSVWISFFEIYNELLYDLLEPPSHQHKRQTLRLCEDQNGNPYVKDLNWIHVRDVEEAWKLLKVGRKNQSFASTHMNQQSSRSHSIFSIRILHLQGEGDIVPKISELSLCDLAGSERCKHQKSGERLKEAGNINTSLHTLGRCIAALRQNQQNRSKQNLIPFRDSKLTRVFQGFFTGRGRSCMIVNVNPCASTYDETLHAAKFSALASQLVHAPPVHLGIPSLHSFIKKHSPQVGPGLEKEDKADSDLEDSPEDEADVSVYGKEELLQVVEAMKALLLKERQEKLQLEIQLREEICNEMVEQMQQREQWCSERLDNQKELMEELYEEKLKILKESLTTFYQEQIQERDEKIEELETLLQEAKQQPAAQQ | 2 |
| KIF20A 55-665 Δ(535-549) (dimeric motor, shortened neck linker) (domain or fragment, mouse, UniProt P97329 55-665, looked up) ALLEDTSEKVKVYLRIRPFLTSELDRQEDQGCVCIENTETLVLQAPKDSFALKSNERGVGQATHKFTFSQIFGPEVGQVAFFNLTMKEMVKDVLKGQNWLIYTYGVTNSGKTYTIQGTSKDAGILPQSLALIFNSLQGQLHPTPDLKPLLSNEVIWLDSKQIRQEEMKKLSLLIGGLQEEELSTSVKKRVHTESRIGASNSFDSGVAGLSSTSQFTSSSQLDETSQLWAQPDTVPVSVPADIRFSVWISFFEIYNELLYDLLEPPSHQHKRQTLRLCEDQNGNPYVKDLNWIHVRDVEEAWKLLKVGRKNQSFASTHMNQQSSRSHSIFSIRILHLQGEGDIVPKISELSLCDLAGSERCKHQKSGERLKEAGNINTSLHTLGRCIAALRQNQQNRSKQNLIPFRDSKLTRVFQGFFTGRGRSCMIVNVNPCASTYDETLHAAKFSALASQLVHAPPVHLGIPSLHSFIKKHSPQVGPGLDEADVSVYGKEELLQVVEAMKALLLKERQEKLQLEIQLREEICNEMVEQMQQREQWCSERLDNQKELMEELYEEKLKILKESLTTFYQEQIQERDEKIEELETLLQEAKQQPAAQQ | 2 |
| KIF20A 55-665 Δ(518-549) (dimeric motor, shortened neck linker) (domain or fragment, mouse, UniProt P97329 55-665, looked up) ALLEDTSEKVKVYLRIRPFLTSELDRQEDQGCVCIENTETLVLQAPKDSFALKSNERGVGQATHKFTFSQIFGPEVGQVAFFNLTMKEMVKDVLKGQNWLIYTYGVTNSGKTYTIQGTSKDAGILPQSLALIFNSLQGQLHPTPDLKPLLSNEVIWLDSKQIRQEEMKKLSLLIGGLQEEELSTSVKKRVHTESRIGASNSFDSGVAGLSSTSQFTSSSQLDETSQLWAQPDTVPVSVPADIRFSVWISFFEIYNELLYDLLEPPSHQHKRQTLRLCEDQNGNPYVKDLNWIHVRDVEEAWKLLKVGRKNQSFASTHMNQQSSRSHSIFSIRILHLQGEGDIVPKISELSLCDLAGSERCKHQKSGERLKEAGNINTSLHTLGRCIAALRQNQQNRSKQNLIPFRDSKLTRVFQGFFTGRGRSCMIVNVNPCASTYDETLHAAKFSALASQLVHAPPVHLGIPDEADVSVYGKEELLQVVEAMKALLLKERQEKLQLEIQLREEICNEMVEQMQQREQWCSERLDNQKELMEELYEEKLKILKESLTTFYQEQIQERDEKIEELETLLQEAKQQPAAQQ | 2 |
